Source: IntAct's records for PubMed 29892012

B1: Coiled-coil alpha-helical rod protein 1 (Homo sapiens), Q8TD31 (parent)
chain: MFPPSGSTGLIPPSHFQARPLSTLPRMAPTWLSDIPLVQPPGHQDVSERRLDTQRPQVTMWERDVSSDRQEPGRRGRSWGLEGSQALSQQAEVIVRQLQELRRLEEEVRLLRETSLQQKMRLEAQAMELEALARAEKAGRAEAEGLRAALAGAEVVRKNLEEGSQRELEEVQRLHQEQLSSLTQAHEEALSSLTSKAEGLEKSLSSLETRRAGEAKELAEAQREAELLRKQLSKTQEDLEAQVTLVENLRKYVGEQVPSEVHSQTWELERQKLLETMQHLQEDRDSLHATAELLQVRVQSLTHILALQEEELTRKVQPSDSLEPEFTRKCQSLLNRWREKVFALMVQLKAQELEHSDSVKQLKGQVASLQEKVTSQSQEQAILQRSLQDKAAEVEVERMGAKGLQLELSRAQEARRRWQQQTASAEEQLRLVVNAVSSSQIWLETTMAKVEGAAAQLPSLNNRLSYAVRKVHTIRGLIARKLALAQLRQESCPLPPPVTDVSLELQQLREERNRLDAELQLSARLIQQEVGRAREQGEAERQQLSKVAQQLEQELQQTQESLASLGLQLEVARQGQQESTEEAASLRQELTQQQELYGQALQEKVAEVETRLREQLSDTERRLNEARREHAKAVVSLRQIQRRAAQEKERSQELRRLQEEARKEEGQRLARRLQELERDKNLMLATLQQEGLLSRYKQQRLLTVLPSLLDKKKSVVSSPRPPECSASAPVAAAVPTRESIKGSLSVLLDDLQDLSEAISKEEAVCQGDNLDRCSSSNPQMSS

Variants of: B1
Conditions: with nutm1_human NUTM1, Q86Y26
Sequence of nutm1_human NUTM1, Q86Y26 (Q86Y26 whole entry): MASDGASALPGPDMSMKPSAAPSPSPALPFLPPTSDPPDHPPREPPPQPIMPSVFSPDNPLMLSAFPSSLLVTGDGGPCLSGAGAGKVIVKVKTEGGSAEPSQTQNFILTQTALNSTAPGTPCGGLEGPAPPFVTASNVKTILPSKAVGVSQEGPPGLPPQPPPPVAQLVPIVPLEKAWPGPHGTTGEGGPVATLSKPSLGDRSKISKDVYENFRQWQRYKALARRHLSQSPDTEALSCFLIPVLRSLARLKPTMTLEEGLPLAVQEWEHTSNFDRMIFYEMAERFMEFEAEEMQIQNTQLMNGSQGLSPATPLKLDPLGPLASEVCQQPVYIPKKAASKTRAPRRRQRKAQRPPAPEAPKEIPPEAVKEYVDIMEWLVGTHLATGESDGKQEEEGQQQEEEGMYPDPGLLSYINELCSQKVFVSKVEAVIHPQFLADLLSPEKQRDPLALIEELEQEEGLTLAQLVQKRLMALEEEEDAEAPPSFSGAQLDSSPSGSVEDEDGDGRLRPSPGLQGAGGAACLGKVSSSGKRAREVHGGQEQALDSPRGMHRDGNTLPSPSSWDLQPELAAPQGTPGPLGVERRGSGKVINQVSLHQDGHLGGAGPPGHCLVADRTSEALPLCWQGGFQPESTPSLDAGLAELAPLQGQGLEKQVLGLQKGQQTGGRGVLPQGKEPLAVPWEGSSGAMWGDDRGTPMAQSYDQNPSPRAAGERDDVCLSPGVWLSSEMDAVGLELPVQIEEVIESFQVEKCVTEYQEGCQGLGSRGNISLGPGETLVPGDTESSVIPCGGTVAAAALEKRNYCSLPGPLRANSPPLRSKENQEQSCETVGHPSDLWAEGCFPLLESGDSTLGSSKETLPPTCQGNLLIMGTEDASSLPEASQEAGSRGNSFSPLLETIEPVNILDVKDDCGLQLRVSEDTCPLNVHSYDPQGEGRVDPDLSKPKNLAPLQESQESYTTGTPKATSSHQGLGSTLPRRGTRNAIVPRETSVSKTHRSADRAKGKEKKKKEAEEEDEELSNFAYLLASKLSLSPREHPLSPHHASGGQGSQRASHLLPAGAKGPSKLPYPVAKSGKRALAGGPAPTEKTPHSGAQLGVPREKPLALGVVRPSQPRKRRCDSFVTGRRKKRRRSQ
With W337R the “effect of a mutation on the interaction” value was “disrupting interaction strength”.

Variants of: B1
Conditions: with tekt1_human TEKT1, Q969V4
W337R was tested, and the “effect of a mutation on the interaction” value was “disrupting interaction strength”.

Variants of: B1
Conditions: with amol2_human AMOTL2, Q9Y2J4
W337R was tested, and the “effect of a mutation on the interaction” value was “disrupting interaction strength”.

Variants of: B1
Conditions: with k1h1_human KRT31, Q15323
W337R was tested, and the “effect of a mutation on the interaction” value was “with no effect”.

Variants of: B1
Conditions: with abi2_human ABI2, Q9NYB9
Sequence of abi2_human ABI2, Q9NYB9 (Q9NYB9 whole entry): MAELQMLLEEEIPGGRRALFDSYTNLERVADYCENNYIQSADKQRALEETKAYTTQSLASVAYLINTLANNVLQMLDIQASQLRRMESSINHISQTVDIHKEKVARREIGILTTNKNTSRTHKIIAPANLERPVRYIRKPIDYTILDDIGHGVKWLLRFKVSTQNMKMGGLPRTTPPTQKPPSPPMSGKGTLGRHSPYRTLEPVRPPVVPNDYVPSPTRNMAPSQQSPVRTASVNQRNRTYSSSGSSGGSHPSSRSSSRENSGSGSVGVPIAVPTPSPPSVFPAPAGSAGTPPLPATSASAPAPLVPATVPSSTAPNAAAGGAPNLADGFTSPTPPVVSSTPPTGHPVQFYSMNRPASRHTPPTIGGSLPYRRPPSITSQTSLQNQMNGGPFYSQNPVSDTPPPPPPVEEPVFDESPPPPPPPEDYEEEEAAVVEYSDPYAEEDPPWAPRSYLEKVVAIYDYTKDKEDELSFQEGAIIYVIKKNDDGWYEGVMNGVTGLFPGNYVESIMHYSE
In the case of W337R, the “effect of a mutation on the interaction” value is reported as “disrupting interaction strength”.

Variants of: B1
Conditions: with txlnb_human TXLNB
With W337R the “effect of a mutation on the interaction” value was “disrupting interaction strength”.

Variants of: B1
Conditions: with ndc80_human NDC80, O14777
With W337R the “effect of a mutation on the interaction” value was “disrupting interaction strength”.

Variants of: B1
Conditions: with tpm3_human TPM3, P06753
Sequence of tpm3_human TPM3, P06753 (P06753 whole entry): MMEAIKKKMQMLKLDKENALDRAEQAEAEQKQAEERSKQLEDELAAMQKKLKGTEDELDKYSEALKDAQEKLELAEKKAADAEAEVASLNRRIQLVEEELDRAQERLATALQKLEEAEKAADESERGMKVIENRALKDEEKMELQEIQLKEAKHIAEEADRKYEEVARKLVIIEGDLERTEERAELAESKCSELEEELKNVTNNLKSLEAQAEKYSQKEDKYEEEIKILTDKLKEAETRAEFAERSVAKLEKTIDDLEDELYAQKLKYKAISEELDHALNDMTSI
With W337R the “effect of a mutation on the interaction” value was “disrupting interaction strength”.

Variants of: B1
Conditions: with KRT15, P19012
W337R was tested, and the “effect of a mutation on the interaction” value was “with no effect”.

Variants of: B1
Conditions: with atg5_human ATG5, Q9H1Y0
Sequence of atg5_human ATG5, Q9H1Y0 (Q9H1Y0 whole entry): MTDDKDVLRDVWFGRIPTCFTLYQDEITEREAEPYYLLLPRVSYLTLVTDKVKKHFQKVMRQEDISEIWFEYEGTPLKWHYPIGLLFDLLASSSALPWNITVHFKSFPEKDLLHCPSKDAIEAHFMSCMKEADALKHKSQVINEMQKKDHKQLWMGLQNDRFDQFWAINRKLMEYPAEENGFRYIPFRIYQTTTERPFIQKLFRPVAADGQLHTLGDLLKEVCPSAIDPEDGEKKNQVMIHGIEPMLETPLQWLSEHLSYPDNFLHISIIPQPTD
W337R was tested, and the “effect of a mutation on the interaction” value was “disrupting interaction strength”.

Variants of: B1
Conditions: with cc136_human CCDC136, Q96JN2
Sequence of cc136_human CCDC136, Q96JN2 (Q96JN2 whole entry): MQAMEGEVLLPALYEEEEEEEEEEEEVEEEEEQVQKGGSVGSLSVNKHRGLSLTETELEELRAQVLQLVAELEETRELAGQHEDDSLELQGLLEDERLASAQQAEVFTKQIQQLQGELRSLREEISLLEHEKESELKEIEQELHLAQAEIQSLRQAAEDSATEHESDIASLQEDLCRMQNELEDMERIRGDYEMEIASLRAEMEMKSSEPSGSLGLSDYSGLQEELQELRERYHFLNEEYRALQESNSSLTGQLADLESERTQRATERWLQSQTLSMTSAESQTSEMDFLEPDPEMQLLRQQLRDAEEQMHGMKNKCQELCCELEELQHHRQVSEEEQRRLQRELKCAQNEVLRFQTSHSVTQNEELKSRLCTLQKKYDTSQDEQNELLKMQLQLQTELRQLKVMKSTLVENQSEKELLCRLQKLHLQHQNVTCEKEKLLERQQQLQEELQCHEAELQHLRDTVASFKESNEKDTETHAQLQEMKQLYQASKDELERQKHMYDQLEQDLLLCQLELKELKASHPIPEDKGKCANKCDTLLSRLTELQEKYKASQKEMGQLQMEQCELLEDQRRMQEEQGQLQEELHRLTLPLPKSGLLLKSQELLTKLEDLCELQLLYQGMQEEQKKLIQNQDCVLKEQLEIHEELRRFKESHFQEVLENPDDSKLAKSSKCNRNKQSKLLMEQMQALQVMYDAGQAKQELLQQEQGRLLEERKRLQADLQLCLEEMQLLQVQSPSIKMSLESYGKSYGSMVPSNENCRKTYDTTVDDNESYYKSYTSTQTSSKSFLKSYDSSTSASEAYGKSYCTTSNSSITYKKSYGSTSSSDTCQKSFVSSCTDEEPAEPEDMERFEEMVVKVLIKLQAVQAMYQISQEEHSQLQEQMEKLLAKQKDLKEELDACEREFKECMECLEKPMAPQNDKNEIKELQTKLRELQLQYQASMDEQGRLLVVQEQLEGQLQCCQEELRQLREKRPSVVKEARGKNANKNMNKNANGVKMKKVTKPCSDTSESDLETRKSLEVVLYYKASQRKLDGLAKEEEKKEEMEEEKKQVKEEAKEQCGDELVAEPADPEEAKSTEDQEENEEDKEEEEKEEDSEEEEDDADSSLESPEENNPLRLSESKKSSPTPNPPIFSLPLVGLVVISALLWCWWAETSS
For W337R, the “effect of a mutation on the interaction” value was “with no effect”.

Variants of: B1
Conditions: with nup62_human NUP62, P37198
Sequence of nup62_human NUP62, P37198 (P37198 whole entry): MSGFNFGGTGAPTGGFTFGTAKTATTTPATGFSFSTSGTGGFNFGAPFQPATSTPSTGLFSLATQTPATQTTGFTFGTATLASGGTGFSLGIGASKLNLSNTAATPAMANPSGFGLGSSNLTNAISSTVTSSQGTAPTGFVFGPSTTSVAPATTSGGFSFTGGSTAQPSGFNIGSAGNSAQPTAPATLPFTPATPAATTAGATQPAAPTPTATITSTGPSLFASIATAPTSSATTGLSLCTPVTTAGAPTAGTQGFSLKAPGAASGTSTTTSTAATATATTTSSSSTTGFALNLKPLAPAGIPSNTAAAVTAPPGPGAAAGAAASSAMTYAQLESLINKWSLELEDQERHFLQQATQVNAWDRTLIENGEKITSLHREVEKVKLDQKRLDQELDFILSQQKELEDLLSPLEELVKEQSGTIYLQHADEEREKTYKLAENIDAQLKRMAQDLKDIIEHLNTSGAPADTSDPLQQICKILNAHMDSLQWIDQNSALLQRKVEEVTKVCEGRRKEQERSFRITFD
For W337R, the “effect of a mutation on the interaction” value was “with no effect”.

Variants of: B1
Conditions: with tsg10_human TSGA10, Q9BZW7
In the case of W337R, the “effect of a mutation on the interaction” value is reported as “disrupting interaction strength”.

Variants of: B1
Conditions: with anchr_human ZFYVE19, Q96K21
Sequence of anchr_human ZFYVE19, Q96K21 (Q96K21 whole entry): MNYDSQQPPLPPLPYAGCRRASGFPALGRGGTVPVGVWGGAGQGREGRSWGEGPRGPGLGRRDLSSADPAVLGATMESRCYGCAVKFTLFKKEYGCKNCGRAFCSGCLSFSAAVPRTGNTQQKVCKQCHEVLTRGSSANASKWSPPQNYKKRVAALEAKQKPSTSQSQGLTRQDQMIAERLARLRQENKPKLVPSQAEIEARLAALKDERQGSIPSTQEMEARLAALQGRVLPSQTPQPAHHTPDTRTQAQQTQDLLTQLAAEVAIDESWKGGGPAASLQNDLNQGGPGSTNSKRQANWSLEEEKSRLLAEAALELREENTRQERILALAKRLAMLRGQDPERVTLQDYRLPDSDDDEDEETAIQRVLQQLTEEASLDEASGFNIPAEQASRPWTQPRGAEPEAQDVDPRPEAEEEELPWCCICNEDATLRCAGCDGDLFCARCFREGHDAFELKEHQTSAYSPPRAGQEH
W337R was tested, and the “effect of a mutation on the interaction” value was “disrupting interaction strength”.

Variants of: B1
Conditions: with sat1_human SAT1, P21673
Sequence of sat1_human SAT1, P21673 (P21673 whole entry): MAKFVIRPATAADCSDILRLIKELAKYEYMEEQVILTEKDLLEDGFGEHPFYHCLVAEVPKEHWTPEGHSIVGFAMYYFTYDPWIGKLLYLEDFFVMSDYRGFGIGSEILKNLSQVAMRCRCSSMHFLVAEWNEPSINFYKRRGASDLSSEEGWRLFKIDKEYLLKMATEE
With W337R the “effect of a mutation on the interaction” value was “disrupting interaction strength”.

Variants of: B1
Conditions: with ndk7_human NME7, Q9Y5B8
Sequence of ndk7_human NME7, Q9Y5B8 (Q9Y5B8 whole entry): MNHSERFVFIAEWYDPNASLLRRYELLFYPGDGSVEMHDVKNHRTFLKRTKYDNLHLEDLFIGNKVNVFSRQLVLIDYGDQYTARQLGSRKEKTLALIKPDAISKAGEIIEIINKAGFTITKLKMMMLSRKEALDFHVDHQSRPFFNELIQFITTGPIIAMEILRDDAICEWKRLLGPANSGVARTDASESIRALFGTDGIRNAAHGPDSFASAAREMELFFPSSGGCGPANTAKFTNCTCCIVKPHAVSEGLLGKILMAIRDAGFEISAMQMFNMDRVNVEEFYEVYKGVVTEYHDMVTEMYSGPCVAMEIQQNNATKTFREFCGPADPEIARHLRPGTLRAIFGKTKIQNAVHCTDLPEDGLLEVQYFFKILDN
With W337R the “effect of a mutation on the interaction” value was “with no effect”.

Variants of: B1
Conditions: with txlna_human TXLNA
W337R was tested, and the “effect of a mutation on the interaction” value was “disrupting interaction strength”.
